Molecular target: 2xMyc‐PAK6 (p21‐activated kinase 6) (human) (UniProt Q9NQU5)
Assay: co-IP; lysates of HEK293T cells co-transfected with Flag-LRRK2 and Myc-PAK6 or Myc-14-3-3; immunoprecipitation with anti-Flag or with anti-Myc; washes in lysis buffer (50 mM Tris pH 7.5, 1% Triton X-100) with 0.25 M NaCl; immunoblot

Sequence of UniProt Q9NQU5 (Q9NQU5 whole entry): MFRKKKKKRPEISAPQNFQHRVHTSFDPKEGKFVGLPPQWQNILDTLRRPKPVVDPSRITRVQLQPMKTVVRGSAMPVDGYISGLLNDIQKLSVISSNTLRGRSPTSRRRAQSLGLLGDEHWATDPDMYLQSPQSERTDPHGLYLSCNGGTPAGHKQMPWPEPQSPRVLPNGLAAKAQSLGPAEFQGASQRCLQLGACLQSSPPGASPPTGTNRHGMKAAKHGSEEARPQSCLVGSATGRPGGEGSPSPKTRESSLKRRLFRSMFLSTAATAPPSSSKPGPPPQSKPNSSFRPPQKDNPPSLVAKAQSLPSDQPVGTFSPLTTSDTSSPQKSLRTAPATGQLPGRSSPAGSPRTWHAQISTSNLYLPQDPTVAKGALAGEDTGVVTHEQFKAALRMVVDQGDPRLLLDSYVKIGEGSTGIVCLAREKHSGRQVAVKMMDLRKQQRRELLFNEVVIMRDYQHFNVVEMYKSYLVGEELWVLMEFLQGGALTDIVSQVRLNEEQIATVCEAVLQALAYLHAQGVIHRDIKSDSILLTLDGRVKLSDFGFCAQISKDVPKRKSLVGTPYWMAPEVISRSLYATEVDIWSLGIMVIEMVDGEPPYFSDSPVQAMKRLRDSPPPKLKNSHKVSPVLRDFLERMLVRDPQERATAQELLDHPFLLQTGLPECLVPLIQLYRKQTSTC

## 3xFlag‐LRRK2 wild type, Q5S007 1-2527
  fold of LRRK2 bound, against 2xMyc‐14‐3‐3 zeta: 3.5 fold

Source: PMC4715492
